Experiments:
[1] = target: T1, mutated human CRTH2 with amino acid substitution (Homo sapiens, UniProt Q9Y5Y4, D194A); test: Epitope analysis using CHO-S cells which express mutated human CRTH2 with amino acid substitution; type: binding; details: mutant D194A; antibody 10 μg/mL; relative to wild-type = 100%
T1 construct: inserting genes encoding various mutants with amino acid substitution obtained by deleting termination codons; expressed in transfected cells; host or cells: CHO-S cells (Lifetechnologies), transient (phmAG1-MNLinker vector)
T1 sequence (Q9Y5Y4 1-395 D194A): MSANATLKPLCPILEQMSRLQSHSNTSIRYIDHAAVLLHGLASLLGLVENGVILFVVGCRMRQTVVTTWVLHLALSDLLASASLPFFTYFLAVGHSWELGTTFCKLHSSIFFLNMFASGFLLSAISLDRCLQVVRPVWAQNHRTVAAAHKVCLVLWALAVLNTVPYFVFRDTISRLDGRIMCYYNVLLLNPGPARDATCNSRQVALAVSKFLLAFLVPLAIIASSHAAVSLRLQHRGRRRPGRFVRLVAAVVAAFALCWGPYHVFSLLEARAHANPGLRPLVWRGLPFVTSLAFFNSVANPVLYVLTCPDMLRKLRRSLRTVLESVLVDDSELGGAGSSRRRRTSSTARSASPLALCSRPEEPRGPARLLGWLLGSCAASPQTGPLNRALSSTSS
Procedure: (§1) A mutant with amino acid substitution expression vector obtained by partially substituting amino acid residues in an extracellular region with other amino acid residues among the amino acid sequences of human CRTH2 was prepared. Specifically, mutant with amino acid substitution expression vectors obtained by substitution of S2A; N4A; T6A and L7A; K8A, P9A, and L10A; P12A, L14A, and EISA; Q16E, R19H, and Q21R; H23A, S24A, and N25A; T26A, S27A, and I28A; D171A, T172A, and I173A; S174A, R175A, and L176A; D177A, G178A, and R179A; 1180A and M181A; Y183A, Y184A, and N185A; L187A, L188A, and L189A; N190A; P191A; G192A; P193A; D194A; R195A; D196A, and T198A; N275A, G277A, and L278A; P276A; P279A and L281A; P280A; or V282A, R283A, and R284A in the amino acid sequences represented by SEQ ID NO: 2 were respectively prepared. It should be noted that the above symbols in the amino acid substitution indicate [single letter code of an amino acid residue before substitution] [substitution position counting from the N terminal] [single letter code of the amino acid reside after substitution].
(§2) Azami-Green tag was added to the intercellular C terminal region by inserting genes encoding various mutants with amino acid substitution obtained by deleting termination codons to the restriction enzyme sites of BamHI and HindIII using phmAG1-MNLinker (MBL) as expression vectors.
(§3) The above-described vectors expressing mutants with amino acid substitution were prepared using 1) a method of entirely synthesizing gene sequences encoding mutants with amino acid substitution and inserting the gene sequences into a vector or 2) a method of performing site-specific mutation from a vector into which DNA which encodes the amino acid sequences of wild-type human CRTH2 represented by SEQ ID NO: 1 was inserted.
(§4) CHO-S cells (Lifetechnologies) were used for preparing mutated human CRTH2 with amino acid substitution expressing cell lines. Free style CHO expression medium (Invitrogen) containing 8 mM L-Glutamine (Invitrogen) was used for subculturing cells and the cells were cultured by shaking under the conditions of 37° C. in the presence of 5% CO2.
(§5) 25 μg of the mutated human CRTH2 with amino acid substitution expression vector prepared in (1) described above was dissolved in 400 μL of Opti-Pro SFM (Invitrogen) and 25 μL of a Freestyle MAX Reagent (Invitrogen) was dissolved in 400 μL of Opti-Pro SFM and each of them were allowed to stand at room temperature for 5 minutes. The two liquids were mixed with each other and allowed to stand at room temperature for 15 minutes. The mixed solution was added to the CHO-S culture solution and the cells were cultured for 24 hours, thereby obtaining cell lines which express mutated human CRTH2 with amino acid substitution.
(§6) The CHO-S cells which express mutated human CRTH2 with amino acid substitution established in (2) were washed with SM, seeded in a 96-well plate such that one well has 2×10^5 cells, and centrifuged at 1700 rpm for 2 minutes. After the supernatant was removed, chLym2, LV0HV1, the anti-human CRTH2 antibody hu19A2 v52, hu8B1 v1, ch3C12, or ch31A5 prepared in Example 9, or a commercially available anti-human CRTH2 antibody BM16 (Santa Cruz) prepared to have a concentration of 10 μg/mL using SM was added thereto to cause a reaction at 4° C. for 1 hour.
(§7) After the cells were washed, goat anti-Human IgG Alexa 647 (Molecular Probes) diluted with SM was added to wells to which chLym2, LV0HV1, hu19A2 v52, hu8B1 v1, ch3C12, or ch31A5 was added and goat anti-Rat IgG Alexa 647 (Molecular Probes) diluted with SM was added to wells to which BM16 was added at a final concentration of 10 μg/mL to cause a reaction at 4° C. for 1 hour.
(§8) After the reaction, the cells were washed and suspended with SM, and the fluorescent intensity was analyzed by flow cytometry (BD Biosciences, FACS CantoII). […]

[2] = target: T2, mutated human CRTH2 with amino acid substitution (Homo sapiens, UniProt Q9Y5Y4, L187A/L188A/L189A); test: as above; type: binding; details: mutant L187A, L188A, and L189A; antibody 10 μg/mL; relative to wild-type = 100%
T2 construct: inserting genes encoding various mutants with amino acid substitution obtained by deleting termination codons; expressed in transfected cells; host or cells: CHO-S cells (Lifetechnologies), transient (phmAG1-MNLinker vector)
T2 sequence (Q9Y5Y4 1-395 L187A/L188A/L189A): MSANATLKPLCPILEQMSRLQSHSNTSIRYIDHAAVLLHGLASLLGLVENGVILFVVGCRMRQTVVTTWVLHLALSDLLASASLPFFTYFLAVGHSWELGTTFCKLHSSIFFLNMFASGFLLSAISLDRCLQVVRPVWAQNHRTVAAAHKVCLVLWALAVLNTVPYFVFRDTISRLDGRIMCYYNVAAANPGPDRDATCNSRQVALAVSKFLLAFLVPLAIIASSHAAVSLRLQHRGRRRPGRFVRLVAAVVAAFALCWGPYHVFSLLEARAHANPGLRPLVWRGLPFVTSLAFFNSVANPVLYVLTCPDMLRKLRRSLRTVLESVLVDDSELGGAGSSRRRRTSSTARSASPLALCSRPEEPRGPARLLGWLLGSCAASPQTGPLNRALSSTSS
Procedure: as §1, §2, §3, §4, §5, §6, §7, §8

B1: LV0HV1: humanized Lym2 antibody, VL LV0 (SEQ ID NO: 33), VH HV1 (SEQ ID NO: 51) (antibody, V domains shown)
VH: EVQLVESGGGVVQPGRSLRLSCAASGFTFSNYYMAWVRQAPGKGLEWVATISYDGSSTYYRDSVKGRFTISRDNAKNSLYLQMNSLRAEDTATYYCARHRGYYYSGAGYFDYWGQGTMVTVSS
VL: DIVMTQTPLSLPVTPGESASISCRSSQSLEYSDGYTYLEWYLQKPGQSPQVLIYGVSNRFSGVPDRFSGSGSGTDFTLKISRVEAEDVGVYYCFQATHDPLTFGQGTKLEIK
reactivity against cells expressing mutated human CRTH2 [1]: lost | reactivity against cells expressing mutated human CRTH2 [2]: lost

Reference: patent publication US10100120B2, “Antibody which specifically binds to human CRTH2” (KYOWA HAKKO KIRIN CO., LTD, priority 2015, dated 2018)
